Measured values: the DeepSol protein solubility set

Experiment: soluble on expression in E. coli; label from the status in PepcDB or PDB records

Soluble on expression in E. coli, soluble:
MSANQEEDKKPGDGGAHINLKVKGQDGNEVFFRIKRSTQLKKLMNAYCDRQSVDMNSIAFLFDGRRLRAEQTPDELDMEDGDEIDAMLHQTGGSGGGATA
MNELTGADFKSATADDNKKLFIETYGCQMNVADSEVIASVMQMAGYSVAETLEEADAVFMNTCSIRDNAEQKILNRLEFFHSLKKKKKALIVGVLGCMAERVKDDLITNHHVDLVVGPDAYLTLPELIAAVEAGEKAINVDLSTTETYRDVIPSRICGNHISGFVSIMRGCNNFCTYCIVPYTRGRERSRDVESILNEVADLVAKGYKEVTLLGQNVNSYRFEKPTGEVVTFPMLLRMVAEAAPGVRIRFTTSHPKDMSDETLEVIAQVPNVCKHIHLPVQSGSSRILKLMNRKYTREWYLDRVAAIKRIIPDCGLTTDIFSGFHSETEEDHQLSLSLMEECGYDAAFMFKYSERPGTYASKHLEDNVPEDVKVRRLNEIIALQNRLSAESNQRCIGKTYEVLVEGVSKRSRDQLFGRTEQNRVVVFDRGTHRIGDFVNVRVTEASSATLKGEEVLEHHHHHH
MSLNNRIIYVVSDSVGETAELVVKAALSQFNGSADDTHVRRIPYVEDIGTINEVISLAKADGGIICFTLVVPEIREYLIAEAEKANVLYYDIIGPLIDKMETAYGLTAKYEPGRVRQLDEDYFKKVEAIEFAVKYDDGRDPRGILKADIVLIGVSRTSKTPLSQYLAHKRLKVANVPIVPEVDPPEELFNVDPKKCIGLKISPDKLNHIRKERLKSLGLNDKAIYANINRIKEELEYFEKIVDRIGCQVVDVSNKAVEETANIIHHLKTKNIEGHHHHHH
MSTLSQLKPASLWQLFEKICSIPHPSKHEQKISLWIQDWAKELGLAIKEDAVGNLFIKKPATAGMEDRKGIILQAHMDMVPQKNNDTDHDFITDPIKPYVIDSGDWVTAEGTTLGADNGVGLASALAILASDDIPHGPLEVLVTIDEEAGMTGAFGLEAGWLDGDILINTDSEQEGEVYMGCAGGIDGNATFALTLEDVPSNYQAFNLSISGLKGGHSGVDIHTGRANANKLLVRFLLSASIDFDISLTELNGGSLRNAIPREANASFVVAKDKVEALKVALADYLSTISANLGAIETDIDMLLISPEDFEQCWTKATQASILRALNACPNGVIRMSDDIEGIVETSLNLGVIHTRGSKLNAMVLIRSLHDDGRLETQRMVQSVFELAGANVVFSGAYPGWKPNTDSAIMQTVRDTYESIFNKVPAVMVIHAGLECGLFKTAYPHWDMVSIGPTIKFPHSPDEKIEIATVEQYWQLLVAVLANIPKKLEHHHHHH
SNALSASEERFQLAVSGASAGLWDWNPKTGAMYLSPHFKKIMGYEDHELPDEITGHRESIHPDDRARVLAALKAHLEHRDTYDVEYRVRTRSGDFRWIQSRGQALWNSAGEPYRMVGWIMDVTDRKRDEDALRVSREELRRL
MTVKVCVCGGGNGAHTLSGLAASRDGVEVRVLTLFADEAERWTKALGADELTVIVNEKDGTQTEVKSRPKVITKDPEIAISGADVVILTVPAFAHEGYFQAMAPYVQDSALIVGLPSQAGFEFQCRDILGDKAAAVSMMSFETLPWACRIKEFGRKVEVLGTKSVLAASLIKGTAKTVDPLSTLQMLHGAEPVFRLAKHFLEMLIMSYSFVHPAILFGRWGSWDGKPVPEAPLFYQGIDQATADMLTACSNECKDVANAIMAACPGNDLSDVKDIYQWYLEYYHEDIQDDHDLYHAITTNKSYKGLVHPVKAVDGGVAPDFGNRYLTEDIPMGMIVFKGVAIAAGVAIPSNDKLIMWAQEKIGKEYLVDGALTGKDVATTRCPQRYGFNTLDAILTGKKHHHHH
MSLSEALERLIDQGVGREPADIVLKGGRFFDLVTGELVASDIAISGERIVGTCGDYEGREEIDVTGRIVVPGFIDTHLHIESSLVTPHEFDRCVLPLGITTVVCDPHEIANVLGTEGIQYFLDSAMETVMDIRVQLSSCVPATHLETSGADLPVGRLTPFRHHPKVIGLAEFMNFPGVVNKDPVCLAKLDAFQDGHIDGHAPLLRGKELNGYLAAGIRTDHECTSAEEALEKIRKGMHILVREGSVSKDLQALMPILTERLSPYLALCTDDRNPLDIAEQGHLDNMIRTAISAGVEPLAIYRAASISAARAFGLRDRGLVAPGWRADLVIVDSLENCKAELVLSAGRRVTDALFAGRKPVEPVGLDSVKAREVKAADFGLPYNEGETSVLGVLPGKIITEHRRYRLPAEGNRTGVDLDRDIIKVAVIERHGVNGNHANGFVQGFGLKKGAIASTVGHDSHNICVVGVNDDDMALAVNRLGEIKGGFVVVHDGKVTGEIALPVAGLMSLEPYERVRDTLHHLRQAAFALGATLEEPFLQLAFLPLPVIPHLKISDRGLVDVDRFMLIGEGHHHHHH
MSKNRDPLLANLNAFKSKVKSAPVIAPAKVGQKKTNDTVITIDGNTRKRTASERAQENTLNSAKNPVLVDIKKEAGSNSSNAISLDDDDDDEDFGSSPSKKVRPGSIAAAALQANQTDISKSHDSSKLLWATEYIQKKGKPVLVNELLDYLSMKKDDKVIELLKKLDRIEFDPKKGTFKYLSTYDVHSPSELLKLLRSQVTFKGISCKDLKDGWPQCDETINQLEEDSKILVLRTKKDKTPRYVWYNSGGNLKCIDEEFVKMWENVQLPQFAELPRKLQDLGLKPASVDPATIKRQTKRVEVKKKRQRKGKITNTHMTGILKDYSHRV
MSLVMSDTLNSLQLGERPEGRTLLTASWVVGHKDGSHRLLKNGEVVFENGEILFVGHGFPGEVARRIDFGNALVSPGLIDLDALSDLDTTILGIDHHPGWAKGRVWPRSYVEAGPYEMYSAEELAFQKRFAFGQLLLNGITTAAPIASLFYRAWGETVAEFEAAADAAGELGLRVYLSPAFRSGGMVLEEPGRMFPVFDEERGFQGLKEAIAFIEKQSGRHGDLVRGMLAPDRVETSTLGLIERTDAAARELGCKFRLHMAQGVMEVDTVRKLHGSTAPVWLAKAGLLSERLIAPHATNATEEDLALYAENGVSIVHCPLVSSRGGSTLSSFSSCRKRGINIAMGTDTAPADMFMNLLVGLITCRINDGAPDQIRCADLFDAATLGGARALGRSDLGHLSSGARADIAVFDLDDAVMAPSVDPITTLVTGGSGKVTRAVFVDGRLSMRERQVAHIDMRRAREQAQAQFDRLIAKYPERSWANPPVSEIFPPSYQVEVAQHGEGHHHHHH

Soluble on expression in E. coli, not soluble:
MHDLDRNEDRLRGTYDFPFEFHHIDHNHPRYVMSYHWHVEYEIIRILDGSLTVTLDEKSFTATAGDIIFVHSGILHSGIPEDCVYQCIVFDGNTFLKNNSVCAGYMQKIIHQEILIYHHFTPKYVDICATVNSLFDALWKKPSGYELSVLGQFYHFFGLIFGNHYYLESVTRARRDYKRILQLKQVLDFIEHNYASPLTLQQLSASVSMSPKYFCRFFSEMTHQTPMDYLNHQRIEQACYQLSTTDDSITEIAYRNGFNDLSYFIRTFKKYKGITPGKYKKA
MGSDKIHHHHHHMSKGTIRVLQLYPRDMNIYGDWGNALVLQQRLRWHGYTPELLEYNVGDEFPAGVDLIVGGGGQDSGQLVIQDDLLSRESTLKELAEAGTPMLLICGMYQLFGKFFKTRTGSVIPGIGVLDVETHGTDERLIGNVTVSSPEFGDVLGYENHSGQTTLGPGVRPLGSTPKGIGNNSKDGQEGARYRNIVASYLHGSLLPKNPAIADFLIRTAVERKYGSFTPGAPDDRYAVMAREHAARRPR
MGSDKIHHHHHHMKPGSHLFSPISFQESTPLYRQLYERVRRAISVGLLFPGDRLPSARMLAKELGVARGTIEQAYSLLIAEGYLQAHGQAGTRVNPDLPSASLPVAEAPVSPSAPDAEQQILWRPSQLLPFQMGVPAFDAFPRKLWARLGARYLRSMQLPDLDYPAPYGLPALRNAIASYLQVSRGIDCTANQVFITSGWRANLQLATLALLKSGQRVWVEDPGYPPTRQLLSQSGLCPIAVSVDREGINVERGIAQANDASMAVVTPAHQSPLSMSLSLPRRQALLQWATAQNAWIMEDDYDGEYRYISRPLPALASLDRHGRVLYAGTFSKVLFPGIRLAYLVVPQSQVAAFEHINRIFFASASPTMTQSIVASFITEGHFARHIQRTRRLYAERRTATITVLQGILGNRIRIDSQPGGMHLVLRLPDKFSDRQLADRLLAQGIAVQPLSRWAVSGSGDNALLVSFTNCTTVMESERLAALILAECEQHGNSLA
MSEDADLKIFMDFLVEKTKDAFQPMIAVQVFREYLNEKSHLHDYHYKRFCCDLAPNMNEWNNYSIEARIRLMYALGGKVESDFLERIETHGTVELNKKRKITKYTSNDGILSLQDNRVHFTRFMDFLIQKTKYAVEPMNFNQVLEEFCRLEPDCRHYGVYYVRFHHKLAPNMDALNNYNIYDRIRLMFVLNGKVSGDFFKTIKTHGTVELDRKKKITKYVSNDGKLKLGGNIISDTRLMDFLIQKTRHSVEPMQATNLIFKEFSERPSRILDKMYQLRFYQKLAPNMNEWNRYSIEQRIRLMFVLKGKVADDFLKTIPILSMAKRIMICRIETHGTVELDEKRRIRKYTSNDGKLSLKKPLTDDTSCPTNIRFMDFLIQNTKDGAESIRLIYNEFALLEGNVLSASTYSSRFCKKLAPKMSQWSNYRIEDRIRMMFALKGKVESDFLAQMIQSGAVQLDENYRIVRYTSNNGKVELSEKRSGVKRRSSTKSSKTLGKRRQVIEKELSDLDEPEFVGIMHGYPKQEPVYEEIINQDMRYNNEDPHIPPEIEQFPIQAVHLEEPKFDPISSMNIGRGTLAQRFGTTSSESDGISVHNFLISLELILTSLESDTLIDLMREIKELRNRTNDEILPPDLVIPALQTCFMGITRKFRPEVSAPSKSAGECLRILKYSLLWLQSPLLYDLQKRVQEEIENCGADGKVIPIADIQQGIRNILFAVSI
ILLPSKPRFIFQDVTVFNFNVSGNPSDLNTPVVQFNLSFRNPNANIRIYYDTLDVYAFYGNGSQQIIIPTPMPSTYQGHKEDSVWSPYIPVVPYNALYLDDQHHSRDGNMLMLHLDGRISWLLLGN
EAYIGVLIDDLVTKGTNEPYRLLTSRAEYRLLLRHDNADLRLTEKGYEIGLIARERYERFCEKKAQIAAEKKRLESITVKPSKEVNALLEEVGSAPLKEAVQANVFLKRPEVTYEHVAKVIPAPEQELSADVAEQVEIQIKYEGYISKMLQQVERAKKMNDKKIPEDLDYDAINGLATEAKQKLSEVRPLSVGQASRVSGVNPSDISILLVYLE
MGSDKIHHHHHHMLTRLELAKDWVRDAGNFLKENIAAPLEITEKTRYDDLVTNFDKEVQEQIVANILHHFPEDKILAEEDEEKIKFDSEIPHLWVLDPIDGTTNFIVQKDNFAVMLAYYEYGVGKFGLILDVMKDKLYWCDSHKAFCNQKELELKERPLAQSLLGVNSYMYRSNSGGLLDLSHQTLGVRIIGSAGISYGQLLEGKIIGYFSSLQPWDYAAGSIIAERIGYVTLTISGESPHFNCRERVFTAPSYLISEIQKYIKK
MKKWAVWLCSLLLLLPLSACTNDGGQSEKPLKKVRLAEVTHSIFYAPQYVALAKGFFKEEGLDVELTTTWGGDKTMTTLLSGGADIALVGSETSIYVYSQGTDDPVINFAQLTQTDGTFLVSRKKIGHFTWEMLKGSTFLGQRKGGMPQMVGEFVLKKHGIDPHQDLKLIQNVDFANIANAFASGTGDFVQLFEPTASLFEQEGKGYIVASFGTESGRVPYTSYMAKRSYMNENKDVIEKFTRAIYKAQQWVESHSAAEIAKAIQPYFKDTDSAIIEKVVERYKSQGTYATDPILDEEEWNNLQTIMAEAGELPKRIDLNTLVDSSFAKNAMND
MAKYEILFKQLRLAILRGEYAPNDRLPSENAIAIKHGVSRITSKRALNELAAADLVYRVRGGGTFVKPHKSTTQRQILLVLPFPETTSFGDYPSGIQGTLAGTTWQLKLMANERFIQLNLDELASQYAGIIYYPQNLATELPILMRLYAQKMPLVVLDKQPAALAVPSVTSDNVAGGKIACEHLQSRGHHRIAFLPETPFWQTFTGTVSDRFLGYFNHLKLATSDAALPLRWAQALQACTTAVQLKAYIQAQRITAIIAENDVVALRALQRIQELTSNSDTSIALVGFDNLPAAARNNPALTTVVQDFAAIGAKAVEALLDQINNPEHLFDDQIVVGVKLMVRSSTNQY
